Experimental data reported in patent EP4703385A1 (Fortvita Biologics Inc., dated 2026).
One block for each binder: values may come before it.

Molecular target: T1, Human CD40 Ligand/TNFSF5 Protein, His, Flag Tag, active trimer (MALS verified) (human, UniProt P29965 108-261, limits assumed)
T1 construct: Bought protein, described as an active trimer; The order of the CD40L part and the tags is not known; also called CD40L protein; CD40L (Acro CDL-H52Db); not shown: His tag and Flag tag
T1 sequence (looked up): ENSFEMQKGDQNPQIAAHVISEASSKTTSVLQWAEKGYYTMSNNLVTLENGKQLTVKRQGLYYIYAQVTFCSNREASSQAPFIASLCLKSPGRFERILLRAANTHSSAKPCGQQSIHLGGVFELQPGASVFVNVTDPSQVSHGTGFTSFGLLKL
Experiment: bio-layer interferometry (ForteBio); antibody 100 nM, human CD40L 100 nM, 30 C

Kd: 315 pM
B1: Hz47E2 (antibody, human IgG1, kappa, L234A L235A, V domains shown)
VH: EVQLVESGGGLVKPGGSLRLSCAASGFTFSDYAMSWVRQAPGKGLEWVSEISTVHTYTYYSDAVAGRFTISRDNAKNSLYLQMNSLRAEDTAVYYCARDRVLDYWGQGTLVTVSS
VL: DIVMTQSPDSLAVSLGERATINCRASESVEYYDTSLMQWYQQKPGQPPKLLIYAASNLESGVPDRFSGSGSGTDFTLTISSLQAEDVAVYYCQQTKKLPWTFGQGTKVEIKR
notes: Expressed in ExpiCHO cells; also called Antibody Hz47E2; humanized anti-CD40L antibody Hz47E2

Kd: 297 pM
B2: Hz33B9C5 (antibody, human IgG1, kappa, L234A L235A, V domains shown)
VH: QVQLVESGGGLVKPGGSLRLSCAASGFTFSDYYMYWIRQAPGKGLEWVSTISGGGTYTYSPDSVKGRFTISRDNAKNSLYLQMNSLRAEDTAVYYCARGEPGLAYWGQGTLVTVSS
VL: DIVMTQSPDSLAVSLGERATINCKASQSVDYYGDSYMHWYQQKPGQPPKLLIYASSNLESGVPDRFSGSGSGTDFTLTISSLQAEDVAVYYCQQSHEDPWTFGGGTKVEIKR
notes: Expressed in ExpiCHO cells; also called Antibody Hz33B9C5; humanized anti-CD40L antibody Hz33B9C5
